From the supplement of paper PMC9233669
Fewer inactive variants are shown than the library holds.

How the values were obtained:
biotinyl-Leu-oxazolone = experiment: self-aminoacylation, catalytic enhancement (BLO) (fold over background); higher = more active; k-Seq, kA / k0A0; sequences stand for … in GGGAAUGGAUCCACAUCUACGAAUUC…UUCACUGCAGACUUGACGAAGCUG
Procedure, shortened: (§1)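 Mutagenized RNA pools with a 21-nt variable region (0.43 μM) reacted with each biotinyl-aminoacyl-oxazolone at 2–1250 μM. Reactions ran in 50 μL HEPES/NaCl/KCl/MgCl2/CaCl2 buffer with 5% acetonitrile, pH 6.9–7.0, for 90 minutes at room temperature. Streptavidin-captured RNA was quantified by triplicate qPCR and Illumina sequencing, and per-sequence fraction reacted was fit to a pseudo-first-order model with 1000 bootstraps. Catalytic enhancement is median kA divided by the uncatalyzed rate, the low-activity peak of a bimodal Gaussian fit.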

biotinyl-Met-oxazolone = experiment: self-aminoacylation, catalytic enhancement (BMO) (fold over background); higher = more active; k-Seq, kA / k0A0; sequences stand for … in GGGAAUGGAUCCACAUCUACGAAUUC…UUCACUGCAGACUUGACGAAGCUG
Procedure, shortened: as §1

biotinyl-Trp-oxazolone = experiment: self-aminoacylation, catalytic enhancement (BWO) (fold over background); higher = more active; k-Seq, kA / k0A0; sequences stand for … in GGGAAUGGAUCCACAUCUACGAAUUC…UUCACUGCAGACUUGACGAAGCUG
Procedure, shortened: as §1

biotinyl-Val-oxazolone = experiment: self-aminoacylation, catalytic enhancement (BVO) (fold over background); higher = more active; k-Seq, kA / k0A0; sequences stand for … in GGGAAUGGAUCCACAUCUACGAAUUC…UUCACUGCAGACUUGACGAAGCUG
Procedure, shortened: as §1

biotinyl-Ile-oxazolone = experiment: self-aminoacylation, catalytic enhancement (BIO) (fold over background); higher = more active; k-Seq, kA / k0A0; sequences stand for … in GGGAAUGGAUCCACAUCUACGAAUUC…UUCACUGCAGACUUGACGAAGCUG
Procedure, shortened: as §1

biotinyl-Phe-oxazolone = experiment: self-aminoacylation, catalytic enhancement (BFO) (fold over background); higher = more active; k-Seq, kA / k0A0; sequences stand for … in GGGAAUGGAUCCACAUCUACGAAUUC…UUCACUGCAGACUUGACGAAGCUG
Procedure, shortened: as §1

| Sequence | self-aminoacylation (biotinyl-Leu-oxazolone) | self-aminoacylation (biotinyl-Met-oxazolone) | self-aminoacylation (biotinyl-Trp-oxazolone) | self-aminoacylation (biotinyl-Val-oxazolone) | self-aminoacylation (biotinyl-Ile-oxazolone) | self-aminoacylation (biotinyl-Phe-oxazolone) |
| --- | --- | --- | --- | --- | --- | --- |
| CCACACUUCAACCAAACGGUC [Fam1B.1 aminoacylation ribozyme variant] | 0.729 | 0.628 | 0.727 | 0.846 | 0.872 | 0.797 |
| CUACUUCUAACAAUCAGUCUG [Fam1A.1 aminoacylation ribozyme variant] | 0.603 | 0.524 | 0.502 | 0.689 | 0.663 | 0.82 |
| GAGUGUGCUAAUAGUCGCAAG [Fam3.1 aminoacylation ribozyme variant] | 1.36 | 1.51 | 3.11 | 1.57 | 1.77 | 9.21 |
| AUUGACCUAGGUCAUCGAGUG [Fam2.2 aminoacylation ribozyme variant] | 13.7 | 9.94 | 6.09 | 5 | 6.03 | 27.9 |
| CUUCUUCAAACAAUCGAUCUG [Fam1A.1 aminoacylation ribozyme variant] | 0.597 | 0.672 | 0.841 | 0.647 | 0.624 | 1.98 |
| AUUCACCUAGGUUAUCGGGUC [Fam2.2 aminoacylation ribozyme variant] | 1.11 | 1.13 | 0.944 | 1.08 | 1.2 | 1.59 |
| AUACAACUAGGUCAUCGGGUG [Fam2.2 aminoacylation ribozyme variant] | 6.09 | 5.2 | 5.27 | 3.22 | 3.32 | 34.4 |
| AUUAACCUGGUCUUCGAGUGA [Fam2.1 aminoacylation ribozyme variant] | 4.66 | 4.3 | 6.87 | 2.71 | 2.4 | 13 |
| AUUCACGUCGGUCAUCGGGUG [Fam2.2 aminoacylation ribozyme variant] | 5.21 | 5.7 | 6.46 | 5.95 | 3.75 | 54.3 |
| CCACACUUCAGGCAAUCGGCC [Fam1B.1 aminoacylation ribozyme variant] | 4.67 | 2.15 | 3.69 | 3.89 | 2.61 | 13.1 |
| AAUACCCUGGUCAUCUAGUGA [Fam2.1 aminoacylation ribozyme variant] | 7.36 | 6.98 | 8.94 | 3.66 | 3.19 | 28.3 |
| CCACACUUCAAACAAUAGGUC [Fam1B.1 aminoacylation ribozyme variant] | 0.471 | 0.435 | 0.652 | 0.656 | 0.617 | 0.995 |
| CCAGACUACAAGCAAUCGGUC [Fam1B.1 aminoacylation ribozyme variant] | 1.17 | 1.16 | 1.35 | 1.42 | 1.26 | 1.07 |
| CUACUUCGAUCAAUCGGUCUG [Fam1A.1 aminoacylation ribozyme variant] | 0.585 | 0.528 | 0.434 | 0.584 | 0.591 | 0.778 |
| AUUCAACUAGGUCAUCGGGCG [Fam2.2 aminoacylation ribozyme variant] | 3.67 | 2.73 | 2.46 | 2.36 | 2.48 | 5.35 |
| CUACUUCAAACCAUCGGUCUG [Fam1A.1 aminoacylation ribozyme variant] | 0.661 | 0.702 | 0.673 | 0.833 | 0.794 | 0.956 |
| AAUCACCUAGUUCAUCGGGUG [Fam2.2 aminoacylation ribozyme variant] | 2.59 | 3.33 | 3.72 | 3.16 | 3.01 | 16.3 |
| CCACACUUUUAGCAAUCGGUC [Fam1B.1 aminoacylation ribozyme variant] | 0.845 | 0.767 | 0.678 | 0.942 | 0.874 | 0.974 |
| AAGUUUGCUAAUAGUCACCAG [Fam3.1 aminoacylation ribozyme variant] | 0.762 | 0.962 | 1.21 | 0.997 | 0.949 | 2.77 |
| AUUCACCUAGGUCAACGGCUG [Fam2.2 aminoacylation ribozyme variant] | 1.17 | 1.07 | 0.872 | 1.09 | 1.12 | 0.492 |
| AAUCAGCUAGGUCAUCGGGUG [Fam2.2 aminoacylation ribozyme variant] | 5.01 | 4.97 | 7.54 | 6.64 | 5.2 | 37.5 |
| AGUACCCUGGUCGUCGAGUGA [Fam2.1 aminoacylation ribozyme variant] | 1.53 | 1.05 | 1.54 | 1.24 | 1.37 | 8.09 |
| CCACACUUCAAGCUAUCGUUC [Fam1B.1 aminoacylation ribozyme variant] | 0.574 | 0.542 | 0.521 | 0.908 | 0.677 | 0.96 |
| CUACUUCAAGCAAUCGGCCUG [Fam1A.1 aminoacylation ribozyme variant] | 2.44 | 1.74 | 16.4 | 1.6 | 1.85 | 18.9 |
| AUUACCCUUGUCCUCGAGUGA [Fam2.1 aminoacylation ribozyme variant] | 4.77 | 4.9 | 5.17 | 3.08 | 2.68 | 32.2 |
| AUUCACCUAGUUCAUCGGAUG [Fam2.2 aminoacylation ribozyme variant] | 0.819 | 1.03 | 0.827 | 0.951 | 0.963 | 0.611 |

| Sequence | self-aminoacylation (biotinyl-Leu-oxazolone) | self-aminoacylation (biotinyl-Met-oxazolone) | self-aminoacylation (biotinyl-Trp-oxazolone) | self-aminoacylation (biotinyl-Val-oxazolone) | self-aminoacylation (biotinyl-Ile-oxazolone) | self-aminoacylation (biotinyl-Phe-oxazolone) |
| --- | --- | --- | --- | --- | --- | --- |
| CCACCCUUCAAGCAAUCGGUU [Fam1B.1 aminoacylation ribozyme variant] | 1.91 | 1.42 | 4.11 | 1.67 | 1.47 | 2.79 |
| AUUCACCUAGAUCAUCGGCUG [Fam2.2 aminoacylation ribozyme variant] | 1.81 | 1.56 | 1.63 | 1.89 | 1.69 | 0.62 |
| CAGUUUGCUAAUAGUCUCAAG [Fam3.1 aminoacylation ribozyme variant] | 1.09 | 0.711 | 0.993 | 0.829 | 0.951 | 1.71 |
| CCAGACUUCAAGCAAUGGGUC [Fam1B.1 aminoacylation ribozyme variant] | 0.759 | 0.72 | 0.74 | 0.856 | 0.856 | 0.887 |
| CAGUUUGCUAAUAGUGGCAAG [Fam3.1 aminoacylation ribozyme variant] | 0.854 | 1.04 | 0.985 | 0.882 | 0.854 | 0.616 |
| AUUACCAUGGUCAACGAGUGA [Fam2.1 aminoacylation ribozyme variant] | 7.89 | 7.33 | 10 | 4.12 | 4.28 | 32.6 |
| AGUCACCUAGGUCAACGGGUG [Fam2.2 aminoacylation ribozyme variant] | 3.22 | 2.25 | 3.02 | 2.08 | 2.57 | 9.17 |
| AAGUUUGCUCAUAGUCGCAAG [Fam3.1 aminoacylation ribozyme variant] | 0.906 | 1.13 | 2.38 | 0.942 | 0.968 | 7.54 |
| AAGUUUGCCAAUAGUCGCCAG [Fam3.1 aminoacylation ribozyme variant] | 2.4 | 2.27 | 2.22 | 1.54 | 1.52 | 12.8 |
| ACUACCCCGGUCAUCGAGUGA [Fam2.1 aminoacylation ribozyme variant] | 5.9 | 5.95 | 5.9 | 2.87 | 3.29 | 30.8 |
| AUUCCCGUAGGUCAUCGGGUG [Fam2.2 aminoacylation ribozyme variant] | 32.4 | 25.3 | 25.3 | 20.2 | 17 | 259 |
| CCACUUCAAACAGUCGGUCUG [Fam1A.1 aminoacylation ribozyme variant] | 0.89 | 1.09 | 1.54 | 1.39 | 1.19 | 0.637 |
| CUACUCCAAACAAUCGCUCUG [Fam1A.1 aminoacylation ribozyme variant] | 0.949 | 0.783 | 0.596 | 0.884 | 1.11 | 1.32 |
| CCACACUUCAAGCGAUCGGUG [Fam1B.1 aminoacylation ribozyme variant] | 8.84 | 6.68 | 6.74 | 4.66 | 4.19 | 41.8 |
| GAGUUUGCUAAUAGUCGCCAG [Fam3.1 aminoacylation ribozyme variant] | 1.47 | 2.45 | 2.6 | 1.69 | 2.51 | 2.04 |
| AUUCACCCAGUUCAUCGGGUG [Fam2.2 aminoacylation ribozyme variant] | 2.6 | 2.52 | 2.33 | 2.72 | 2.48 | 10.8 |
| GUUACCCUGGUAAUCGAGUGA [Fam2.1 aminoacylation ribozyme variant] | 10.5 | 10.7 | 13.9 | 4.77 | 4.93 | 58.5 |
| CUACUUAAAACAAUCGGUAUG [Fam1A.1 aminoacylation ribozyme variant] | 0.53 | 0.55 | 0.339 | 0.574 | 0.556 | 0.513 |
| AUUCACCUAGGUCAUAUGGUG [Fam2.2 aminoacylation ribozyme variant] | 4.8 | 3.44 | 3.68 | 2.25 | 2.25 | 20.3 |
| AUUCACCUAGGGCAUGGGGUG [Fam2.2 aminoacylation ribozyme variant] | 12 | 10.1 | 9.2 | 5.39 | 5.82 | 81.4 |
| AUUACCCGGGUCAUCAAGUGA [Fam2.1 aminoacylation ribozyme variant] | 2.35 | 2.59 | 2.93 | 2.08 | 1.77 | 5.43 |
| CUUCACCUAGGUCAUCGAGUG [Fam2.2 aminoacylation ribozyme variant] | 7.37 | 5.78 | 4.55 | 4.22 | 4.29 | 9.18 |
| CUACUUCAAACAUUCGCUCUG [Fam1A.1 aminoacylation ribozyme variant] | 1.24 | 1.12 | 0.81 | 0.985 | 1.07 | 3.16 |
| CCAUACUUCAAGCAACCGGUC [Fam1B.1 aminoacylation ribozyme variant] | 0.894 | 0.74 | 0.794 | 1 | 1.06 | 1.06 |
| CCACACUUCCAGCGAUCGGUC [Fam1B.1 aminoacylation ribozyme variant] | 1.51 | 1.68 | 1.46 | 1.97 | 1.78 | 1.52 |
